The supplement of paper PMC9170038

Test system: MS2 coat protein
Assay: apparent KD of MS2 coat protein; designed switch direction (-1 OFF switch, 1 ON switch): -1; higher = weaker reporter binding
Outline: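 Designed RNA switches with common flanks were transcribed on Illumina chips by stalled E. coli RNA polymerase and titrated with SNAP-549-labelled MS2 coat protein, from 0.7 or 1.5 nM doubling to 3 µM, in Tris-HCl pH 7.5 buffer with KCl, MgCl2, BSA, DTT, tRNA and Tween-20. Steps lasted 0.8–1.5 h (lowest) to 10–20 min (highest). Titrations ran without input, with 200 uM small-molecule ligand, or with an oligonucleotide input. Normalised cluster fluorescence was curve-fitted, and apparent KD is the per-design median over clusters.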

[1] = Eterna round: R95, input ligand: microRNA oligo, concentration not stated
[2] = input ligand: microRNA oligo, concentration not stated
[3] = Eterna round: R95, input ligand: FMN 200 uM
[4] = Eterna round: R95, input ligand: none

Sequence	apparent KD of MS2 coat protein [1]	apparent KD of MS2 coat protein (input ligand: FMN 200 uM)	apparent KD of MS2 coat protein (input ligand: none)	other results
CCGCAUAAGCAGGAUAUCGUAUCGGAUACGAUACGAGAAGGGUUUACAUGAGGAUCACCCAUGUUCCUUAGCGG [Fiskers Ex 6 - 31] (puzzle: Exclusion 6)	26.2 nM	–	–	–
CCGCAUGCUGUCAGGAUAUCGUAGAUAAUAAUAUGCGAGAAGGGACAUGAGGAUCACCCAUGUAAGAGGCGGCC [Design for Riboswitch] (puzzle: Brourd's mod of Exclusion 4)	24.4 nM	–	–	–
CCGCUCCGUGUAGGAUAUUGGCGUGCCCUGCGCCGAGAAGGACAUGAGGAUCACCCAUGUAUGUUAUUAUCACGCGUGGCGCAC [Design 76] (Eterna round: R96, puzzle: Exclusion NG 1)	–	15.9 nM	17 nM	apparent KD of MS2 coat protein [2]: 12.9 nM
CCGCUGCAAGGAUAUACUUGCGGUGGUGCUCGAGUUCUUCUACUUGAGGAUCACCCAAGUAGAAGGUGCAAAAC [jl-ex2.4.57 ViennaUCT mod] (Eterna round: R97, puzzle: Exclusion 2)	–	34.4 nM	17.1 nM	–
CCGGAAAGGAAGGAUAUGCUAGACGAGAGUCUAGCAGAAGGUCCUACAUGAGGAUCACCCAUGUGUCCUACCGG [Mat - Exclusion 6 - Eli Mod - D38] (Eterna round: R97, puzzle: Exclusion 6)	–	69.6 nM	79.8 nM	–
CCGGAAAGGAAGGAUAUGCUUGACGAAAGUCAAGCAGAAGGUCCUACAUGAGGAUCACCCAUGUGGCCUCCCGG [Mat - Exclusion 6 - Eli Mod - D48] (Eterna round: R97, puzzle: Exclusion 6)	–	737 nM	128 nM	–
CCGGAAAUAGAGGAUAUAGUACUGGAUACAGUACUAGAAGGCUAUACAUGAGGAUCACCCAUGUGUCCUACCGG [Fiskers Ex 6 - 62] (puzzle: Exclusion 6)	13.9 nM	–	–	–
CCGGAAAUAGAGGAUAUCGUACUGGAUACAGUACGAGAAGGCUAUACAUGAGGAUCACCCAUGUGUCCUACCGG [Fiskers Ex 6 - 61] (puzzle: Exclusion 6)	16.1 nM	–	–	–
CCGGAAAUGAAGGAUAUAGGAGUCGAUAGACACCUAGAAGGUCAUACAUGAGGAUCACCCAUGUGUCCUACCGG [Fiskers Ex 6 - 78] (puzzle: Exclusion 6)	14.9 nM	–	–	–
CCGGAAAUGGAGGAUAUCGUAUCGGAUACGAUACGAGAAGGCUAUACAUGAGGAUCACCCAUGUGUCCUACCGG [Fiskers Ex 6 - 5] (puzzle: Exclusion 6)	12.6 nM	–	–	–
CCGGAACAUGAGGAUCACCCAUGUCAGGAUAUGAAUAAAUCGUCGAAAGACGAUAAUCUCAGAAGGGACACCGG [Eli 4.28] (Eterna round: R97, puzzle: Exclusion 1)	–	22.7 nM	19.6 nM	–
CCGGAAGUACAGGAUAUCGUAUCGGAUACGAUACGAGAAGGGUAUACAUGAGGAUCACCCAUGUGUCCUACCGG [Fiskers Ex 6 - 55] (puzzle: Exclusion 6)	19.6 nM	–	–	–
CCGGAUUAGGAGGAUAUAGGAGUCGAUAGACACCUAGAAGGCCUGACAUGAGGAUCACCCAUGUGUCCUACCGG [Mod of Eli 17 - Jieux - Exclusion 6] (Eterna round: R97, puzzle: Exclusion 6)	–	48.6 nM	22.9 nM	–
CCGGCUUACUAGGAUAUCAGAGUCGAAAGACUCUGAGAAGGAGUAACAUGAGGAUCACCCAUGUGUCCUACCGG [Mod of Eli 9 - Jieux - Exclusion 6] (Eterna round: R97, puzzle: Exclusion 6)	–	113 nM	29.5 nM	–
CCGGCUUAGGAGGAUAUAGGAGUCGAUAGACACCUAGAAGGCCUGACAUGAGGAUCACCCAUGUGUCCUACCGG [Fiskers Ex 6 - 98] (puzzle: Exclusion 6)	14.2 nM	–	–	apparent KD of MS2 coat protein [3]: 31.1 nM; apparent KD of MS2 coat protein [4]: 16.5 nM
CCGGGUUAUGUUAGGAUAUGUAGGCCGCAACCGGAACAGAAGGGACAUGAGGAUCACCCAUGUGAUAUUCCCGG [Onxexe] (puzzle: Brourd's mod of Exclusion 4)	17.5 nM	–	–	–
CCGGUUGGCGCAGGAUAUACAUGAGGAUCACCCAUGUUCAUCAGGAUCACCGAUGAGUUUUUGUUGUAGAAGGGUGGCCCGGCC (Eterna round: R96, puzzle: Exclusion NG 2)	–	–	–	apparent KD of MS2 coat protein [2]: 24.2 nM
CCGGUUGGCGCAGGAUAUACAUGAGGAUCACCCAUGUUCAUGAGGAUCAUCCAUGAGUUUUUGUUGUAGAAGGGUGGCCCGGCC (Eterna round: R96, puzzle: Exclusion NG 2)	–	117 nM	98.4 nM	apparent KD of MS2 coat protein [2]: 60.8 nM
CCGUGCAGGCUGCGGUCCUACAUGAGGAUCACCCAUGUGGUCCGGUGGCGUGGGUCGCCGGACUUGGCUCGUCUUGU [salish99_S_TOV1_R5_016] (Eterna round: R97, puzzle: Sensor, turn-off variant 1)	–	75.1 nM	86.3 nM	–

Sequence	apparent KD of MS2 coat protein [1]	apparent KD of MS2 coat protein (input ligand: FMN 200 uM)	apparent KD of MS2 coat protein (input ligand: none)	other results
CCGUUCCGUGUAGGAUAUUGGCCUUCCUCGGGCCGAGAAGGACAUGAGGAUCACCCAUGUAUGCUAUUAUCGCGCGUGGCGCAC [Design 97] (Eterna round: R96, puzzle: Exclusion NG 1)	–	158 nM	39.1 nM	apparent KD of MS2 coat protein [2]: 22.6 nM
CCUAAGAAAGGAUAUACACCGGUGGGCCGCUGAAUUCAGCAACAUGAGGAUCACCCAUGUAGAAGGUUUAUGGG [Veteso] (Eterna round: R96, puzzle: Exclusion 2)	–	346 nM	262 nM	apparent KD of MS2 coat protein [2]: 147 nM
CCUAUGUGAGGAUAUCACUGGUCUUUUCAUUAGAUGAUCAGUGAGAAGGCACAUGAGGAUCACCCAUGUCAGUG [Ex4 - 3 - 53] (Eterna round: R96, puzzle: Exclusion 4)	–	48 nM	110 nM	apparent KD of MS2 coat protein [2]: 59.7 nM
CCUAUGUGAGGAUAUCACUGGUCUUUUCAUUAGAUGAUCAGUGAGAAGGCACAUGAGGAUCACCCAUGUCAGUG [Ex4 - 3 - 53] (puzzle: Exclusion 4)	71.8 nM	–	–	–
CCUAUGUUAGGAUAUUGCUCUCAGCCGUAGGAGGACAUGACCGAGAAGGAACAUGAGGAUCACCCAUGUGUAUU [Eternabot (L2) Solution 53] (Eterna round: R97, puzzle: Exclusion 4)	–	17.4 nM	24 nM	–
CCUCAACAGGUCAGGAUAUACCCAACGGCGGACGGGUAGAAGGGACAUGAGGAUCACCCAUGUCCAGAGGUGAG [Eternabot (Original) Solution 11] (Eterna round: R97, puzzle: Brourd's mod of Exclusion 4)	–	45.5 nM	16.9 nM	–
CCUCAACAGUAGGAUAUCAUCAAACUAUUGUGAUGAGAAGGACUGACAUGAGGAUCACCCAUGUUAACGUGAUG [Exclusion 6 - 6:c] (puzzle: Exclusion 6)	21 nM	–	–	apparent KD of MS2 coat protein [3]: 70.8 nM; apparent KD of MS2 coat protein [4]: 20.4 nM
CCUCAACAGUAGGAUAUCAUCAAACUAUUGUGAUGAGAAGGACUGACAUGAGGAUCACCCAUGUUAACGUGAUG [Mod of Brourd - Jieux - Exclusion 6] (Eterna round: R97, puzzle: Exclusion 6)	–	176 nM	35.8 nM	–
CCUCACAGAGGAUAUACGUCCACUGAACCCAUGAGGUUGCCACAUGAGGAUCACCCAUGUAGAAGGCUGUGCUG [Mageanma] (puzzle: Exclusion 2)	18.9 nM	–	–	–
CCUCCACAGGAGGAUAUCAUCAAACUAUUGUGAUGAGAAGGCCUGACAUGAGGAUCACCCAUGUUAACGUGAUG [Mod of Brourd 8 - Jieux - Exclusion 6] (Eterna round: R97, puzzle: Exclusion 6)	–	209 nM	58.1 nM	–
CCUCCACAUGAGGAUCACCCAUGUCAGGAUAUCGUGUGCGCGUUUUCGGUCUUUCGCGCGAGAAGGGACGACUG (Eterna round: R96, puzzle: Exclusion 1)	–	32 nM	30.2 nM	apparent KD of MS2 coat protein [2]: 22.5 nM
CCUCCACAUGAGGAUCACCCAUGUCAGGAUAUCGUGUGCGCGUUUUCGGUCUUUCGCGCGAGAAGGGACGACUG (puzzle: Exclusion 1)	24.7 nM	–	–	–
CCUCCACAUGAGGAUCACCCAUGUCAGGAUAUCGUGUGCGCGUUUUCGGUCUUUCGUGCGAGAAGGGACGUCUG (puzzle: Exclusion 1)	32.6 nM	–	–	–
CCUCCACAUGAGGAUCACCCAUGUCAGGAUAUCGUGUGUUUUUUUUCGGCCGCGCGUGCGAGAAGGGACGUCUU (puzzle: Exclusion 1)	19.1 nM	–	–	–
CCUCCCGCCGUCAGGAUAUGCCGUACCGCUGCGCUCCAGAAGGCACUUGAGGAUCACCCAAGUACCCGUGAGGC [salish99_bmod_ex4_r4_009] (Eterna round: R97, puzzle: Brourd's mod of Exclusion 4)	–	16 nM	16.1 nM	–
CCUCGACAUGAGGAUCACCCAUGUCAGGAUAUUGUGUAUCGGGUUUUUUACCGAAAGGCGAGAAGGGAUGUGUG [LRO-Excl1-11] (puzzle: Exclusion 1)	15 nM	–	–	–
CCUCGACAUGAGGAUCACCCAUGUCAGGAUAUUGUGUAUCGGGUUUUUUACGGAAAGGCGAGAAGGGAUGUGUG [LRO-Excl1-10] (puzzle: Exclusion 1)	15.5 nM	–	–	–
CCUCGGUCAGGAUAUGGGCCAUGCGAUGAUGAAGCCUGGCGCCAGAAGGGACAUGAGGAUCACCCAUGUCCGUA [Eternabot (Original) Solution 37] (Eterna round: R97, puzzle: Exclusion 4)	–	71.3 nM	17.2 nM	–
CCUCUAACCUAGGAUAUAGGUAGACCUAGUCGCCUAGAAGGAGGUACAUGAGGAUCACCCAUGUAUAUUGGGCU [Inmaor] (puzzle: Exclusion 6)	173 nM	–	–	–
